Data taken from patent US20180230213A1 (AVEO PHARMACEUTICALS, published 2018).

How the values were obtained:
rhNotch1-Fc = biological target: T1, rhNotch1-Fc (human, UniProt P46531 19-526); assay: BLI (Octet QK): rhNotch1-Fc loaded on anti-human-Fc sensors, then antibody 4F11 in solution
T1 construct: also called human Notch1 protein; R&D Cat. No. 3647-TK-050
Experimental: Antibody 4F11 was tested for binding to human Notch1, human Notch2, or human Notch3 proteins. Binding measurements were made by biolayer interferometry (BLI), using a FortéBio Octet® QK instrument (FortéBio, Menlo Park, Calif.). Anti-human-Fc sensors were soaked in PBS containing 1 mg/ml BSA for five minutes prior to binding of antibodies. Then the following proteins (400 nM, in PBS containing 1 mg/ml BSA) were allowed to bind to the sensors: rhNotch1-Fc (R&D Systems, Minneapolis, Minn.; Cat. No. 3647-TK-050), rhNotch2-Fc (R&D Cat. No. 3735-NT-050), rhNotch3-Fc (R&D Cat. No. 1559-NT-050), or rmNotch3-Fc (R&D Cat. No. 1308-NT-050). Notch protein bound sensors were immersed in antibody solution (50 μg/ml) to allow binding of antibody to the Notch protein. Binding was detected by shifts in the interference pattern.

[1] = biological target: human Notch3 on the cell surface (human, UniProt Q9UM47 40-2321); assay: cell-based or functional assay

B1: antibody 4F11 (murine monoclonal anti-human Notch3) (antibody, mouse IgG1, kappa, V domains shown)
VH: EVQLVESGGGLVKPGGSLKLSCAASGFAFSSYDMSWVRQTPEKRLEWVAYISRGGGSTYYPDTVKGRFTISRDNAKNTLYLQMSSLKSEDTAMYYCGRHATTAYWYFDVWGAGTTVTVSS
VL: DVVMTQTPLSLPVSLGDQASISCRSSQSLVHTNGNTYLHWYLQKPGQSPKLLIYKVSNRFSGVPDRFSGSGSGTDFTLKISRVEAEDLGVYFCSQSTHVPWTFGGGTKLEIKR
notes: Mouse IgG1 kappa purified from hybridoma; also called mu4F11; murine 4F11
rhNotch1-Fc
  binding result: no binding
[1]
  EC50, inhibition of Notch3-dependent reporter activity stimulated by DLL1: 6 nM
  EC50, inhibition of Notch3-dependent reporter activity stimulated by DLL4: 4.7 nM
  EC50, inhibition of Notch3-dependent reporter activity stimulated by Jag1: 2.6 nM
  EC50, inhibition of Notch3-dependent reporter activity stimulated by Jag2: 0.4 nM
